Source: patent publication US20240115722A1 (RUTGERS THE STATE UNIVERSITY OF NEW JERSEY, published 2024)
Read-outs that look alike come from different tables or passages of the source.

Columns and labels:
[1] = target: T1, recombinant human EphA5 (rhEphA5) antigen (human, UniProt P54756 25-573); assay: SPR multi-cycle kinetics (Biacore T200), purified IgG captured on anti-human IgG CM5 chip, recombinant EphA5 as analyte, 1:1 fit
T1 construct: also called human EphA5 (R and D systems, Cat. No. 3036-A5); recombinant EphA5
T1 sequence (P54756 25-573 limits assumed): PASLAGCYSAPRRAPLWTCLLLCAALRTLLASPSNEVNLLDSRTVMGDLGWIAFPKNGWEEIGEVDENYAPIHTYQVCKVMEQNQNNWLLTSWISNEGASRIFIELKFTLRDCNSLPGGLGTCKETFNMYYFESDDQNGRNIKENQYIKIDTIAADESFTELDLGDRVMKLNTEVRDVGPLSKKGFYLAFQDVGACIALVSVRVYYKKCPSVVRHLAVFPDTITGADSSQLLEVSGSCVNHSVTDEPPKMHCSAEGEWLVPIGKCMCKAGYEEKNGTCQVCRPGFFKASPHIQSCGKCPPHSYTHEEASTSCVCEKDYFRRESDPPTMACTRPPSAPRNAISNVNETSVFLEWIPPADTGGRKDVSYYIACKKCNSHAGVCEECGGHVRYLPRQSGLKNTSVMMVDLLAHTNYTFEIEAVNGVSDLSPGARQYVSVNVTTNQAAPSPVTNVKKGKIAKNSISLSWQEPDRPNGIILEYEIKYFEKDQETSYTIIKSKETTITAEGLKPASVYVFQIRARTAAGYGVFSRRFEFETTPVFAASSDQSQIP
Method: HBS-P+(GE Healthcare, Uppsala, Sweden), supplemented with 1% BSA w/v (Sigma, Dorset, UK) was used as running buffer as well as for ligand and analyte dilutions. Purified lead antibodies were diluted to 0.5 μg/mL in running buffer and at the start of each cycle, loaded onto Fc2, Fc3 and Fc4 of an anti-human IgG CM5 sensor chip (GE Healthcare, Little Chalfont, UK). […] The surface was then allowed to stabilize.
Multi-cycle kinetic data was obtained using recombinant EphA5 as the analytes injected at a flow rate of 30 μl/min to minimize any potential mass transfer effects. […] For each concentration, the association phases were monitored for 210 seconds and the dissociation phase was measured for 900 seconds. Regeneration of the sensor chip surface was conducted between cycles using two injections of 3 M MgCl2. Multiple repeats of a blank and of EphA5 were programmed into the kinetic run in order to check the stability of both the surface and analyte over the kinetic cycles.
The signal from the reference channel Fc1 (no IgG captured) was subtracted from that of Fc2, Fc3 and Fc4 to correct for bulk effect and differences in non-specific binding to a reference surface. The signal from each IgG blank run (IgG captured but no antigen) was subtracted to correct for differences in surface stability. The double referenced sensorgrams were fitted with the Langmuir (1:1) binding model where the closeness of fit of the data to the model is evaluated using the Chi square value which describes the deviation between the experimental and fitted (observed and expected) curves. The fitting algorithm seeks to minimize the Chi square value.

[2] = target: T2, human EPH receptor A5 (EphA5) expressed on cells (human, UniProt P54756 25-1037); assay: flow cytometry on H460 (EphA5+) cells, starting assay concentration 10 µg/mL
T2 construct: Cell line (H460 stably expressing EphA5; HEK-293T transfected with EPHA5 clone or wild-type construct; lung cancer lines with endogenous or variable expression); also called cell-surface EphA5; wild-type target protein
T2 sequence (P54756 25-1037 limits assumed): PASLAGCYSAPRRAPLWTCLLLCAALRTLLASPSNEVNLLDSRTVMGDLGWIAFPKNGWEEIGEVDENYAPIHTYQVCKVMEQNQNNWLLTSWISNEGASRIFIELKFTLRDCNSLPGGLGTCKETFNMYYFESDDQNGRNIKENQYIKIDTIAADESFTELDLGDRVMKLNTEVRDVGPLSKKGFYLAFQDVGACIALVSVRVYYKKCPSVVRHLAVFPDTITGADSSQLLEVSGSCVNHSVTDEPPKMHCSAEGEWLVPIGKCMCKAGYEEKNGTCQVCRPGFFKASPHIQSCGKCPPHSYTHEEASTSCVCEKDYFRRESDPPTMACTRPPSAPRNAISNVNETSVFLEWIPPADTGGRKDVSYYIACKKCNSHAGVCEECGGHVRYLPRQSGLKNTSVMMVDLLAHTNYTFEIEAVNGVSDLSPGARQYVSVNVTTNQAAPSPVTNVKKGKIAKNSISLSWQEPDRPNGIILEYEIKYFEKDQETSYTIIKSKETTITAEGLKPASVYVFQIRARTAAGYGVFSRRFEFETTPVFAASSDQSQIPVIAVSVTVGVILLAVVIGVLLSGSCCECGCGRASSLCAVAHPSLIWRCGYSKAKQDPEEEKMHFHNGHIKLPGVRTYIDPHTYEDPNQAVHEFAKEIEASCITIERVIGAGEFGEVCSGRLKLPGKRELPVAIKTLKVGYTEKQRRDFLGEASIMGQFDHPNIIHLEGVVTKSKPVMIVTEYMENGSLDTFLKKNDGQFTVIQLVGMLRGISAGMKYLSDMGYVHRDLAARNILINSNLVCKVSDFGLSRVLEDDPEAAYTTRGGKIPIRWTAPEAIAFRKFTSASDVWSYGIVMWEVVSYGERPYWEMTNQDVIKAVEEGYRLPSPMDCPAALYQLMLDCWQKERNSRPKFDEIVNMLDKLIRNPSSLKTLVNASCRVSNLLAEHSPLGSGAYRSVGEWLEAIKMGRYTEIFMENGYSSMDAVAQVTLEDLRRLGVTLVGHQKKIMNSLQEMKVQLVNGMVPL
Method: Samples were prepared at a starting concentration of 10 μg/ml in FACS buffer and underwent a four-fold seven point serial dilution for testing with H460 cells and a three-fold three point serial dilution for the H226 cells. Cell pellets were resuspended in 100 μl of the serially diluted samples and incubated at 4° C. for 30 minutes. After the incubation, cells were pelleted, washed twice with 100 μl of FACS buffer and resuspended in either Alexa Fluor 647 anti-mouse or anti-human (Thermo Fisher) diluted to 5 μg/ml in FACS buffer. After incubation at 4° C. for 30 minutes, cells were pelleted, washed twice with 100 μl of FACS buffer and resuspended in 200 μl per well 1×BD CellFix solution (BD Pharmingen, Berkshire, UK). Median fluorescence intensity (MFI) was measured using an Attune NxT Flow Cytometer (Thermo Fisher, Loughborough, UK) and 10,000 gated events were acquired per sample. For data analysis, live cell populations were gated based on the forward and side scatter dot plot allowing the Alexa Fluor 647 MFI values to be measured in the RL1 channel.

[3] = target: T1, recombinant human EphA5 (rhEphA5) …; assay: SPR single-cycle kinetics (Biacore T200), IgG from HEK supernatant captured on anti-human IgG CM5 chip, rhEphA5 as analyte, 1:1 fit; set-up: Relative KD: reference not given here
Method: Kinetic analysis was carried out on a Biacore T200. Each antibody was captured on a CM5 chip coupled with an anti-human IgG using standard amine chemistry before increasing concentrations of antigen were injected and a single off-rate was determined.
Kinetic experiments were performed at 25° C. on a Biacore T200 running Biacore T200 Control software V2.0.1 and Evaluation software V3.0 (Cytiva, Uppsala, Sweden).
HBS-P+ (Cytiva, Uppsala, Sweden), supplemented with 1% BSA (Sigma, Dorset, UK) was used as running buffer as well as for ligand and analyte dilutions. Supernatants containing IgG were diluted in running buffer to 1 μg/mL. At the start of each cycle, antibodies were loaded onto Fc2, Fc3 and Fc4 of an anti-human IgG CM5 sensor chip (Cytiva, Little Chalfont, UK). Ig were captured at a flow rate of […] to give an immobilization level (RL) of ˜60 RU. The surface was then allowed to stabilize.

[4] = target: T1, recombinant human EphA5 (rhEphA5) …; assay: SPR (Biacore T200), IgG captured on anti-human IgG chip, rhEphA5 as analyte, 1:1 fit; table does not say single- or multi-cycle
[5] = target: T2, human EPH receptor A5 (EphA5) expressed …; assay: flow cytometry on H460 (EphA5+) cells, goat anti-mouse Alexa Fluor 647 detection
[6] = target: T3, FCGR1A (human, UniProt P12314); assay: Membrane Proteome Array screen, human membrane protein clones expressed in cells, flow cytometry (Table E4: HEK-293T, antibody 20 µg/ml)
T3 construct: clone overexpressed in live cells from an expression plasmid; Labelled point above the threshold in the Membrane Proteome Array plots of both H4K3 and H5K3
T3 sequence (P12314 16-374 limits assumed): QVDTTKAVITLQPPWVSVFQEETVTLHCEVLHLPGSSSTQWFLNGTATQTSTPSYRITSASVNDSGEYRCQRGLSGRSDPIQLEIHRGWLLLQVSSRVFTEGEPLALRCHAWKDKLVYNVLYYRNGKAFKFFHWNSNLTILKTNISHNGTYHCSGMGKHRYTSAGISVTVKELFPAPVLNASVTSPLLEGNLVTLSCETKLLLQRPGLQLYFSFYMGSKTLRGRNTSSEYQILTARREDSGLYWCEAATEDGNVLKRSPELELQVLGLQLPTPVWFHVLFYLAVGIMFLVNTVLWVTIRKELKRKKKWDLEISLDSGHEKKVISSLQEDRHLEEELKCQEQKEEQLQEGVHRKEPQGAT

[7] = target: T3, FCGR1A; assay: as above; remark: listed apart in the source

Binder	Kd [1] [nM]	Relative KD [1]	koff [1] [s⁻¹]	EC50 [2] [µg/mL]	Max. Binding (MFI) [2] [MFI]	Kd [3] [nM]	Relative KD [3]	koff [3] [s⁻¹]	Kd [4] [nM]	koff [4] [s⁻¹]	kon [4] [M⁻¹ s⁻¹]	EC50 (read off the curve) [5] [µg/mL]	binding result [6]	binding result [7]
VH3/VK4 humanized 11C12 antibody (antibody, human IgG1, kappa, Human IgG1/kappa; lead variant, tested as HEK supernatant and as protein purified from CHO; also called H3K4) heavy: not shown light: DIVMTQSPDSLAVSLGERATINCKSSQSVDYDGDSYMNWYQQKPGKAPKLLIYGASNLESGIPDRFSGSGSGTDFTLTISRLEPEDAASYYCQQSNEDPFTFGQGTKLEIKRTVAAPSVFIFPPSDEQLKSGTASVVCLLNNFYPREAKVQWKVDNALQSGNSQESVTEQDSKDSTYSLSSTLTLSKADYEKHKVYACEVTHQGLSSPVTKSFNRGEC	1.08	0.69	0.00142	0.018	36500	0.956	0.72	0.00128	–	–	–	–	–	–
VH5/VK3 humanized 11C12 antibody (antibody, human IgG1, kappa, Human IgG1/kappa; lead variant, tested as HEK supernatant and as purified protein; also called H5K3; EPHA5 H5K3) heavy: not shown light: DIVMTQSPDSLAVSLGERATINCKASQSVDYDGDSYMNWYQQKPGKAPKLLIYGASNLESGIPDRFSGSGSGTDFTLTISRLEPEDAAVYYCQQSNEDPFTFGQGTKLEIKRTVAAPSVFIFPPSDEQLKSGTASVVCLLNNFYPREAKVQWKVDNALQSGNSQESVTEQDSKDSTYSLSSTLTLSKADYEKHKVYACEVTHQGLSSPVTKSFNRGEC	–	–	–	0.019	36500	1.03	0.77	0.0014	1.11	0.00135	1.21e+06	–	binds	–
VH4/VK3 humanized 11C12 antibody (antibody, human IgG1, kappa, Human IgG1/kappa; lead variant, tested as HEK supernatant and as purified protein; also called H4K3; EPHA5 H4K3) heavy: not shown light: DIVMTQSPDSLAVSLGERATINCKASQSVDYDGDSYMNWYQQKPGKAPKLLIYGASNLESGIPDRFSGSGSGTDFTLTISRLEPEDAAVYYCQQSNEDPFTFGQGTKLEIKRTVAAPSVFIFPPSDEQLKSGTASVVCLLNNFYPREAKVQWKVDNALQSGNSQESVTEQDSKDSTYSLSSTLTLSKADYEKHKVYACEVTHQGLSSPVTKSFNRGEC	0.937	0.6	0.00139	0.018	36700	1.04	0.78	0.00137	–	–	–	–	–	binds
VH5/VK2 humanized 11C12 antibody (antibody, human IgG1, kappa, V domains shown, Human IgG1/kappa; lead variant, tested as HEK supernatant and as protein purified from CHO; also called H5K2) VH: EVQLVESGGGLVQPGGSLKLSCAASGFTFSTFGIHWVRQAPGKGLEWVAYISGASTTIYYADSVKGRFTISRDNSKNTLYLQMNSLRAEDTAVYYCARYGTSFPYGLDYWGQGTLVTVSS VL: DIVMTQSPDSLAVSLGERATINCKASQSVDYDGDSYMNWYQQKPGKAPKLLIYGASNLESGIPDRFSGSGSGTDFTLTISRLEPEDAASYYCQQSNEDPFTFGQGTKLEIKR	0.934	0.6	0.00125	0.017	36900	0.892	0.67	0.00123	–	–	–	–	–	–

Second part, the binder after the results:

Kd [1] [nM]	Relative KD [1]	koff [1] [s⁻¹]	EC50 [2] [µg/mL]	Max. Binding (MFI) [2] [MFI]	Kd [3] [nM]	Relative KD [3]	koff [3] [s⁻¹]	Kd [4] [nM]	koff [4] [s⁻¹]	kon [4] [M⁻¹ s⁻¹]	EC50 (read off the curve) [5] [µg/mL]	binding result [6]	binding result [7]	Binder
1.04	0.67	0.00132	0.017	37500	1.05	0.79	0.0014	–	–	–	–	–	–	VH4/VK4 humanized 11C12 antibody (antibody, human IgG1, kappa, V domains shown, Human IgG1/kappa; lead variant, tested as HEK supernatant and as protein purified from CHO; also called H4K4) VH: EVQLVESGGGLVQPGGSLKLSCAASGFTFSTFGIHWVRQAPGKGLEWVAYISGASTTIYYADTVKGRFTISRDNSKNTLYLQMNSLRAEDTAVYYCARYGTSFPYGLDYWGQGTLVTVSS VL: DIVMTQSPDSLAVSLGERATINCKSSQSVDYDGDSYMNWYQQKPGKAPKLLIYGASNLESGIPDRFSGSGSGTDFTLTISRLEPEDAASYYCQQSNEDPFTFGQGTKLEIKR
–	–	–	0.015	35400	1.33	1	0.00153	1.56	0.0015	965000	–	–	–	chimeric VH0/VK0 antibody (murine 11C12 variable regions, human IgG1/kappa constant regions) (antibody, V domains shown, also called chimeric antibody) VH: EVTLKESGGGLVQPGGSRKLSCAASGFTFSTFGIHWVRQAPEKGLEWVAYISGASTTIYYADTVKGRFTISRDNPKNTLFLQMTSLRSEDTAMYYCARYGTSFPYGLDYWGQGTSVTVSS VL: DIVMTQSPGSLAVSLGQRATISCKASQSVDYDGDSYMNWYQQKPGQPPKLLIYGASNLESGIPARFSGSGSGTDFTLNIHPVEEEDAASYYCQQSNEDPFTFGSGTKLEIKR
–	–	–	0.025	27300	–	–	–	–	–	–	~0.05	–	–	anti-human EphA5 monoclonal murine antibody 11C12 (antibody, V domains shown, Full murine antibody; also called murine 11C12; mouse 11C12) VH: EVTLKESGGGLVQPGGSRKLSCAASGFTFSTFGIHWVRQAPEKGLEWVAYISGASTTIYYADTVKGRFTISRDNPKNTLFLQMTSLRSEDTAMYYCARYGTSFPYGLDYWGQGTSVTVSS VL: DIVMTQSPGSLAVSLGQRATISCKASQSVDYDGDSYMNWYQQKPGQPPKLLIYGASNLESGIPARFSGSGSGTDFTLNIHPVEEEDAASYYCQQSNEDPFTFGSGTKLEIK
1.04	0.67	0.00128	0.018	35900	1.04	0.78	0.00141	–	–	–	–	–	–	VH5/VK4 humanized 11C12 antibody (antibody, human IgG1, kappa, V domains shown, Human IgG1/kappa; lead variant, tested as HEK supernatant and as protein purified from CHO; also called H5K4) VH: EVQLVESGGGLVQPGGSLKLSCAASGFTFSTFGIHWVRQAPGKGLEWVAYISGASTTIYYADSVKGRFTISRDNSKNTLYLQMNSLRAEDTAVYYCARYGTSFPYGLDYWGQGTLVTVSS VL: DIVMTQSPDSLAVSLGERATINCKSSQSVDYDGDSYMNWYQQKPGKAPKLLIYGASNLESGIPDRFSGSGSGTDFTLTISRLEPEDAASYYCQQSNEDPFTFGQGTKLEIKR
